Results from patent US20210388087A1.
Positions count from the first letter of the chain named. Numbers in names are those of the source.

B1: dBBDu183H F100gR / dBBDu072L (antibody, name in Kabat numbering, V domains shown)
VH: QVQLVESGGGLVQPGRSLRLSCAASGFTFSNAWMHWVRQAPGKGLEWVAQIKDKGNAYAAYYAPSVKGRFTISRDDSKNSIYLQMNSLKTEDTAVYYCHYVHYASASTVLPARGVDAWGQGTTVTVSS
VL: DIVMTQSPLSLPVTPGEPASISCQASQELVHMNRNTYLHWYQQKPGQAPRLLIYKVSNRFPGVPDRFSGSGSGTDFTLKISRVEAEDVGVYYCAQGTSVPFTFGQGTKLEIK
B2: dBBDu183H H93W / dBBDu072L (antibody, name in Kabat numbering, V domains shown)
VH: B1 VH with H99W, R113F
VL: B1 VL
B3: dBBDu183H V95W / dBBDu072L (antibody, name in Kabat numbering, V domains shown)
VH: B1 VH with V101W, R113F
VL: B1 VL
B4: dBBDu183H A100fF / dBBDu072L (antibody, name in Kabat numbering, V domains shown)
VH: B1 VH with A112F, R113F
VL: B1 VL
B5: dBBDu183H G100hF / dBBDu072L (antibody, name in Kabat numbering, V domains shown)
VH: B1 VH with R113F, G114F
VL: B1 VL
B6: dBBDu183H S100aF / dBBDu072L (antibody, name in Kabat numbering, V domains shown)
VH: B1 VH with S107F, R113F
VL: B1 VL
B7: dBBDu183H A100F / dBBDu072L (antibody, name in Kabat numbering, V domains shown)
VH: B1 VH with A106F, R113F
VL: B1 VL
B8: dBBDu183H A102R / dBBDu072L (antibody, name in Kabat numbering, V domains shown)
VH: B1 VH with R113F, A117R
VL: B1 VL
B9: dBBDu183H A100fW / dBBDu072L (antibody, name in Kabat numbering, V domains shown)
VH: B1 VH with A112W, R113F
VL: B1 VL
B10: dBBDu183H Y94W / dBBDu072L (antibody, name in Kabat numbering, V domains shown)
VH: B1 VH with Y100W, R113F
VL: B1 VL
B11: dBBDu183H P100eW / dBBDu072L (antibody, name in Kabat numbering, V domains shown)
VH: B1 VH with P111W, R113F
VL: B1 VL
B12: dBBDu183H S99W / dBBDu072L (antibody, name in Kabat numbering, V domains shown)
VH: B1 VH with S105W, R113F
VL: B1 VL
B13: dBBDu183H H93F / dBBDu072L (antibody, name in Kabat numbering, V domains shown)
VH: B1 VH with H99F, R113F
VL: B1 VL
B14: dBBDu183H A102F / dBBDu072L (antibody, name in Kabat numbering, V domains shown)
VH: B1 VH with R113F, A117F
VL: B1 VL
B15: dBBDu183H V100iR / dBBDu072L (antibody, name in Kabat numbering, V domains shown)
VH: B1 VH with R113F, V115R
VL: B1 VL
B16: dBBDu183H G100hR / dBBDu072L (antibody, name in Kabat numbering, V domains shown)
VH: B1 VH with R113F, G114R
VL: B1 VL
B17: dBBDu183H T100bW / dBBDu072L (antibody, name in Kabat numbering, V domains shown)
VH: B1 VH with T108W, R113F
VL: B1 VL
B18: dBBDu183H P100eF / dBBDu072L (antibody, name in Kabat numbering, V domains shown)
VH: B1 VH with P111F, R113F
VL: B1 VL
B19: dBBDu183H A98F / dBBDu072L (antibody, name in Kabat numbering, V domains shown)
VH: B1 VH with A104F, R113F
VL: B1 VL
B20: dBBDu183H L100dF / dBBDu072L (antibody, name in Kabat numbering, V domains shown)
VH: B1 VH with L110F, R113F
VL: B1 VL
B21: dBBDu183H D101F / dBBDu072L (antibody, name in Kabat numbering, V domains shown)
VH: B1 VH with R113F, D116F
VL: B1 VL
B22: dBBDu183H S100aW / dBBDu072L (antibody, name in Kabat numbering, V domains shown)
VH: B1 VH with S107W, R113F
VL: B1 VL
B23: dBBDu183H D101R / dBBDu072L (antibody, name in Kabat numbering, V domains shown)
VH: B1 VH with R113F, D116R
VL: B1 VL
B24: dBBDu183H V95F / dBBDu072L (antibody, name in Kabat numbering, V domains shown)
VH: B1 VH with V101F, R113F
VL: B1 VL
B25: dBBDu183H A98W / dBBDu072L (antibody, name in Kabat numbering, V domains shown)
VH: B1 VH with A104W, R113F
VL: B1 VL
B26: dBBDu183H D101W / dBBDu072L (antibody, name in Kabat numbering, V domains shown)
VH: B1 VH with R113F, D116W
VL: B1 VL
B27: dBBDu183H V100cF / dBBDu072L (antibody, name in Kabat numbering, V domains shown)
VH: B1 VH with V109F, R113F
VL: B1 VL
B28: dBBDu183H G100hW / dBBDu072L (antibody, name in Kabat numbering, V domains shown)
VH: B1 VH with R113F, G114W
VL: B1 VL
B29: dBBDu183H V100iW / dBBDu072L (antibody, name in Kabat numbering, V domains shown)
VH: B1 VH with R113F, V115W
VL: B1 VL
B30: dBBDu183H S99F / dBBDu072L (antibody, name in Kabat numbering, V domains shown)
VH: B1 VH with S105F, R113F
VL: B1 VL
B31: dBBDu183H A100W / dBBDu072L (antibody, name in Kabat numbering, V domains shown)
VH: B1 VH with A106W, R113F
VL: B1 VL
B32: dBBDu183H V100iF / dBBDu072L (antibody, name in Kabat numbering, V domains shown)
VH: B1 VH with R113F, V115F
VL: B1 VL
B33: dBBDu183H T100bF / dBBDu072L (antibody, name in Kabat numbering, V domains shown)
VH: B1 VH with T108F, R113F
VL: B1 VL

Each binder was assayed against Human CD137 ECD (human) (assay: SPR, vs parent H183/L072).
Chain of Human CD137 ECD (human) (chain, as listed by the source limits assumed): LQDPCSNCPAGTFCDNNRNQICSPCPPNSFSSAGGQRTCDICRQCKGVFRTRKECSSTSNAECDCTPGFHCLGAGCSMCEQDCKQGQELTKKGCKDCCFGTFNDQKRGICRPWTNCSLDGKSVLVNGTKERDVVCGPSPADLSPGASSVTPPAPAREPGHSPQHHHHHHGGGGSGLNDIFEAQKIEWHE

Row | Binder | fold change of affinity [fold]
1 | B1 | 0
2 | B2 | 0
3 | B3 | 0
4 | B4 | 0
5 | B5 | 0
6 | B6 | 0
7 | B7 | 0
8 | B8 | 0
9 | B9 | 0
10 | B10 | 0
11 | B11 | 0
12 | B12 | 0
13 | B13 | 0
14 | B14 | 0
15 | B15 | 0
16 | B16 | 0
17 | B17 | 0

Row | Binder | fold change of affinity [fold]
18 | B18 | 0
19 | B19 | 0
20 | B20 | 0
21 | B21 | 0
22 | B22 | 0
23 | B23 | 0
24 | B24 | 0
25 | B25 | 0
26 | B26 | 0
27 | B27 | 0
28 | B28 | 0
29 | B29 | 0
30 | B30 | 0
31 | B31 | 0
32 | B32 | 0
33 | B33 | 0
